Experiment [1] concerns the target T1, mouse Ang2 (Accession # NP-031452) (R&D Systems) (mouse, UniProt O35608 19-496).
T1 construct: Bought protein coated on the ELISA plate; also called mAng2
T1 sequence (looked up): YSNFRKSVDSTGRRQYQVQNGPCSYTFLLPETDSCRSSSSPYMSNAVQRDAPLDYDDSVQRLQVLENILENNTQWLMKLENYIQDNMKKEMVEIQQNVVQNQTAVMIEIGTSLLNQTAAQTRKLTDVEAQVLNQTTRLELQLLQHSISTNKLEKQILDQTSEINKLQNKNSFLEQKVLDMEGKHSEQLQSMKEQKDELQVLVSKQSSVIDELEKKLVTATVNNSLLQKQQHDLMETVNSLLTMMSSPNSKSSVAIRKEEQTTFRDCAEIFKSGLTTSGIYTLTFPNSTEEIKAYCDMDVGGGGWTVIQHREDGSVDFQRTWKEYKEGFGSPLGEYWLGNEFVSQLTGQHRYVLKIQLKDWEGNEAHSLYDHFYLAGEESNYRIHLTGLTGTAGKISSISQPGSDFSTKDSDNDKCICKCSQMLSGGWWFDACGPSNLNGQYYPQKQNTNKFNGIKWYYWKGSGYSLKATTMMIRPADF
As to the kind of experiment: ELISA on coated mouse Ang2; 50% binding concentration, which the filing calls Kd. The procedure: An ELISA was conducted to measure the binding affinity of the antibodies prepared in Example 2 to mouse Ang2(mAng2). MaxiSorp™ flat-bottom plate (Nunc) of 96-well was coated with 5-20 μg/ml of mouse Ang2 (Mouse Ang2; Accession # NP_{—}031452) (R&D Systems). Thereafter, the plate was washed five times with 0.05% (v/v) Tween-20-containing PBS (PBST) and then blocked with 1% (v/v) BSA (bovine serum albumin; Sigma)-containing PBS at a room temperature for 2 hour. Each of the anti-Ang2 antibodies was added to each well of the plate at various concentrations, and the plate was allowed to react at a room temperature for 2 hours.
Thereafter, the plate was washed five times with PBST. Then, a HRP-conjugated anti-mouse IgG antibody (Santacruz) diluted in 1% (v/v) BSA-containing PBS at a ratio of 1:1,000 (v/v) was added in an amount of 50 μl to each well to react at a room temperature for 1 hour and then, the plate was washed five times with PBST. Lastly, 100 μl of TMB substrate (Cell Signaling) was added to each well of the plate to induce color development for 3 min. and then, the reaction was ceased by the addition of 100 μl of Stop solution (Cell Signaling) and OD450 values were measured on a plate reader (Molecular Devices).
From the obtained results, 50% binding concentration (Kd) of the anti-Ang2 antibody to Ang2 protein is obtained, thereby measuring the binding intensity of each of the anti-Ang2 antibodies to Ang2.

Experiment [2] has as its target T2, FLAG-tagged hAng-2 (human, UniProt O15123 19-496).
T2 sequence: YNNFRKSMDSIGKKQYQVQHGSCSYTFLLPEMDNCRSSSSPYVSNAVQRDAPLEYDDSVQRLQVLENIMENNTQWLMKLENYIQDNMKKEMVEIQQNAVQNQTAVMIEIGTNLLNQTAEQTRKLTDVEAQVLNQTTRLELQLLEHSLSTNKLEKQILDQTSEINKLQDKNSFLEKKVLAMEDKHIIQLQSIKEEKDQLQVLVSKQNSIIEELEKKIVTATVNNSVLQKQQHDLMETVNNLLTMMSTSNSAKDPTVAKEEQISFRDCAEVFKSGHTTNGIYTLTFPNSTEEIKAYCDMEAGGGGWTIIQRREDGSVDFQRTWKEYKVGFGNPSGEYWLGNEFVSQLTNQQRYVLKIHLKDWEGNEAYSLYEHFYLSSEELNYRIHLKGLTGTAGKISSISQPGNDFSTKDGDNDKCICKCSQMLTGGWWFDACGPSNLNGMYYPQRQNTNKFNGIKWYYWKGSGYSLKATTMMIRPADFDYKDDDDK
Kind of experiment: Ang2:Tie2 competition ELISA; hTie2-Fc coated, 400 ng/ml FLAG-tagged hAng-2, anti-FLAG-HRP detection. How it is done: More specifically, MaxiSorp™ flat-bottom plate (Nunc) of 96-well was coated with hTie2-Fc (R&D Systems) which is a protein bound with 4 μg/ml of Fc of human IgG1. After coating, the plate was washed five times with 0.05% (v/v) Tween-20-containing PBS (phosphate buffer saline) and then blocked with 1% (v/v) BSA (bovine serum albumin; Sigma)-containing PBS at a room temperature for 2 hour.
For Ang2:Tie2 competition ELISA, each anti-Ang2 antibody obtained in Example 2 was placed at various concentrations of 400 nM-0.001 nM into each well coated with the hTie-2/Fc fusion protein along with 1% (v/v) BSA and 400 ng/ml of a FLAG-tagged hAng-2 and then, the plate was allowed to react at a room temperature for 2 hours and washed five times with PBST. After that, a HRP-conjugated anti-FLAG antibody (Sigma) diluted in 1% (v/v) BSA-containing PBS at a ratio of 1:5,000 (v/v) was added in an amount of […] to each well to react at a room temperature for 1 hour and then, the plate was washed five times with PBST. Lastly, 100 μl of TMB substrate (Cell Signaling) was added to each well of the plate to induce color development for 3 min. and then, the reaction was ceased by the addition of 100 μl of Stop solution (Cell Signaling) and OD450 values were measured on a plate reader (Molecular Devices).

The target of experiment [3] is T3, hAng1 (human, UniProt Q15389 20-498, limits assumed).
T3 construct: Tested by the same SPR set-up as hAng2; the construct is not described; also called human Ang1
T3 sequence (looked up): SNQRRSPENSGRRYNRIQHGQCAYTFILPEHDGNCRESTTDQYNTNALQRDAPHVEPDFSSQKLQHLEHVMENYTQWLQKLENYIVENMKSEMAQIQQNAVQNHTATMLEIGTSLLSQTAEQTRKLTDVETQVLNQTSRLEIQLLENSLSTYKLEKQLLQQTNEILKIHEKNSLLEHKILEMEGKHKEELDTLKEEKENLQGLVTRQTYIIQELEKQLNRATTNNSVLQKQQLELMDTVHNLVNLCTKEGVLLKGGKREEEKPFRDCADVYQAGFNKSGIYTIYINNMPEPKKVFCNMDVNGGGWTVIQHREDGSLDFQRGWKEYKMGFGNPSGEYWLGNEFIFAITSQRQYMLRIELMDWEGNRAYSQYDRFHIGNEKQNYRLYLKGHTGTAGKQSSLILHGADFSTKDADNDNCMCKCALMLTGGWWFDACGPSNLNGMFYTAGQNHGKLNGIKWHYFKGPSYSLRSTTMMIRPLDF
As to the kind of experiment: SPR, BIAcore T100.

The target in experiment [4] is T4, recombinant hAng-2 (C-His, R&D Systems) (human, UniProt O15123 19-496).
T4 construct: Bought protein; Captured on an anti-His antibody chip for SPR; also called human Ang2; not shown: C-terminal His tag
T4 sequence: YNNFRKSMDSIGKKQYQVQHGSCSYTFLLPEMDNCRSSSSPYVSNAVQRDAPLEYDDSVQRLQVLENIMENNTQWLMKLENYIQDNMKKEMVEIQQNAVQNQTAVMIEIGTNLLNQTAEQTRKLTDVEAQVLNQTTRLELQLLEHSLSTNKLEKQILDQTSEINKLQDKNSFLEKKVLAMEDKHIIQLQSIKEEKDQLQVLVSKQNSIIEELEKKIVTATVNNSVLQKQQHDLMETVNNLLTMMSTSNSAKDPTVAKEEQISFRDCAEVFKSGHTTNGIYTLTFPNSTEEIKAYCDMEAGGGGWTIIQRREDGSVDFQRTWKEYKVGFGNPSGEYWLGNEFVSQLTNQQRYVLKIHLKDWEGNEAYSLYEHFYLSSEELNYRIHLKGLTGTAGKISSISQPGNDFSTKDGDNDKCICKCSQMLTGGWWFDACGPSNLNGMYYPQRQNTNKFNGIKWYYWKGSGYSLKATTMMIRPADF
As to the kind of experiment: SPR, BIAcore T100; hAng-2 C-His captured on anti-His chip, antibody flowed. How it is done: To more exactly measure the binding affinity of the anti-Ang2 antibodies to antigen Ang2, the binding affinity of the above antibodies to the antigen was measured by an surface plasmon resonance (SPR) method using BIAcore T100 (GE Healthcare). The SPR method uses refractive index change of light which passes a sensor chip according to the state of materials coated onto the sensor chip, and if an antigen or an antibody is flowed onto a chip coated with the antigen or antibody, it causes changes in refractive index due to their binding and Kd values are thus calculated from the measured values.
First, anti-His antibody was immobilized on a CM5 sensor chip (GE healthcare) up to 8,000 RU levels using a pH 5.0 acetate solution and an amine coupling kit (GE Healthcare). 6 μg/ml of a recombinant hAng-2 (C-His, R&D Systems) protein was flowed onto the chip to be captured at 100 to 200 RU levels.
For orientation: Surface plasmon resonance follows binding to a sensor surface in real time, without labels.

In general, Kd refers to a measure of binding affinity in units of concentration. As usually defined, the IC50 is the midpoint of a concentration-inhibition curve. Higher therefore signals weaker potency in that assay.

B1: SAIT-ANG2-AB-m1B6 (antibody, V domains shown)
VH: QIQLVQSGPELKKPGETVKISCKASGYTFTNYGMNWVKQAPGKGLKWMGWINTYTGEPTYADDFKGRFAFSLETSASTAYLQINNLKNEDTATYFCARDHDGYLMDYWGQGTSVTVSS
VL: DIQMTQTTSSLSASLGDRVTISCSTSQGISNYLNWYQQKPDGTVKLLIFYTSSLHSGVPSRFSGSGSGTDYSLTISNLEPEDIATYYCQQYSKLPYTFGGGTKLEIK
notes: also called hybridoma KCLRF-BP-00307
In the case of B1, the Kd in experiment [1] amounted to 2.1 nM; in experiment [4], 2.3 nM. In experiment [2], this molecule had an IC50 of 2.89 nM. The binding result in experiment [3] is reported as “no binding (tested: 100 nM (highest antibody concentration))”.

(Values after US20150210761A1 (SAMSUNG ELECTRONICS, published 2015).)
